Patent publication US7109299B1, “Peptides and compounds that bind to the IL-5 receptor” (Affymax, Inc., priority 1999, dated 2006)
Bridge positions count the residues as written; N and C are the ends. Ends that are not written are not given here. Peptide text beside a SMILES is read from it. I, II: the chains in the order shown.

Tests used:
IL-5Rα ECD [1] = biological target: T1, IL-5Rα ECD (Homo sapiens, UniProt Q01344); experiment: biochemical
T1 sequence (Q01344 21-342 limits assumed): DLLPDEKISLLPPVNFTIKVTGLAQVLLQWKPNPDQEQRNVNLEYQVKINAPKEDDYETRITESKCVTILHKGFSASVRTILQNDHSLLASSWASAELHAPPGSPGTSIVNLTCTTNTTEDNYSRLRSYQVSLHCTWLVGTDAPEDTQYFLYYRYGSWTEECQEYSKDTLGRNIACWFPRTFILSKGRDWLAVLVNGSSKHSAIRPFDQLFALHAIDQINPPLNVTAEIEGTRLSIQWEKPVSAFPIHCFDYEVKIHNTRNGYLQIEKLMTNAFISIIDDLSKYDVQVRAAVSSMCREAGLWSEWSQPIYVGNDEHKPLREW
Experimental: Binding affinities of synthetic peptides for IL-5Rα were measured in a competition binding assay using radio-iodinated IL-5. Immulon 4 (Dynatech) microtiter wells were coated with streptavidin (Sigma) by incubating 100 μl of a 50 μg/ml solution in PBS for 30 min. at 37°. The wells were blocked with 200 μl of 1% BSA in PBS for 15 min. at 37°, followed by 100 μl of biotinylated monoclonal antibody, designated mAb 179, at 5 μg/ml in PBS. Soluble IL-5Rα was then immobilized in the wells by incubating 100 μl of a solution of soluble receptor harvest diluted 1:5000 in PBS/0.1% BSA for 1 hr. at 4°. After washing away unbound receptor, 50 μl of various concentrations of test peptide diluted in PBS/0.1% BSA were added to the wells, followed by 50 μl of a fixed concentration of [^125I] IL-5 (Amersham). The binding reactions were incubated at 4° C. for 2 hr, then washed with PBS to remove unbound [^125I] IL-5. Bound [^125I] IL-5 was determined by gamma counting. Total binding was defined by the amount of [^125I] IL-5 bound in the absence of any competitor. Non-specific binding was defined by the amount of [^125I] IL-5 bound in the presence of 30 nM IL-5. Peptide binding data was analyzed to determine the peptide concentration required to reduce specific [^125I] IL-5 binding by 50% (IC50).

[2] = biological target: T2, native IL-5R α/β complex on TF-1 cells (Homo sapiens, UniProt Q01344); experiment: competition binding of [125I] IL-5 to TF-1 cells; settings: read-out: IC50, inhibition of binding of [125I] IL-5 to TF-1 cells
T2 construct: endogenous in cells; host or cells: TF-1 cells
T2 sequence (Q01344 21-420): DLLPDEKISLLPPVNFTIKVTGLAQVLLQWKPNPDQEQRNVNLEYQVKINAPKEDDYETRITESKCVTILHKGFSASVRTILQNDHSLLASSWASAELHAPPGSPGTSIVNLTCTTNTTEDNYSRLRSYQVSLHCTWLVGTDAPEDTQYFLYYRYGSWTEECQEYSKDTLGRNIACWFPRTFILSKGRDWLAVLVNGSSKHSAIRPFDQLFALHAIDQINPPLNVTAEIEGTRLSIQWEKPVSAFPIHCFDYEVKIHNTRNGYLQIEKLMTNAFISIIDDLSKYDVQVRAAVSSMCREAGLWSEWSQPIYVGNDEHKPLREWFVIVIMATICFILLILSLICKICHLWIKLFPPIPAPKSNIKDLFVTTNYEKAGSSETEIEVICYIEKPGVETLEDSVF
Experimental: The ability of AF18748 to bind to the native IL-5R α/β complex on TF-1 cells was assessed in a competition binding assay (as described in McKinnon et al., J. Exp. Med 186: 121 (1997)). The binding of [^125I]

human eosinophils = assay type: cell-based
Experimental: The functional activity of AF18748 was assessed in a human eosinophil adhesion assay (following the method of […], et al, Cytokine 8:248 (1996)). […] AF18748 is therefore a potent and selective antagonist of IL-5 in a human eosinophil functional assay.

[3] = biological target: T3, chimeric IL-5Rα/EGFR receptor (Homo sapiens, UniProt P00533+Q01344); experiment: chimeric IL-5Rα/EGFR luciferase reporter cell assay in Ba/F3 cells; assay type: cell-based; settings: for luciferase activity of Ba/F3 cells expressing the chimera: serial dilutions, 4 hr
T3 construct: A chimeric receptor consisting of the IL-5Rα ECD fused to the transmembrane spanning and intracellular domains; expressed in transfected cells; host or cells: Ba/F3 cells with c-fos enhancer/TK promoter luciferase reporter
Text: A system comprising a chimeric IL-5R-α/EGFR reported cell assay was designed to analyze receptor binding stoichiometry in a cellular context. A chimeric receptor consisting of the IL-5Rα ECD fused to the transmembrane spanning and intracellular domains of the epidermal growth factor receptor (EGFR) was constructed, and stably expressed in Ba/F3 cells that also contained a luciferase reporter gene under the transcriptional control of the c-fos enhancer and minimal thymidine kinase promoter.
In the assay, Ba/F3 cells expressing a chimeric IL-5Rα/EGFR receptor and containing a luciferase reporter gene were starved overnight of the WEHI conditioned medium in which they were maintained, then seeded into microtiter wells at a density of 10^5 cells/well. Following stimulation, the cells were incubated for 4 hr at 37° in a 5% CO2 incubator. LucLite reagent (Packard) was then added to the wells according to the manufacturer's instructions and the plates were assayed for luciferase activity by counting in a Topcount instrument (Packard). Data points represent mean±SEM for 3 separate experiments performed in triplicate. The data has been normalized to the stimulation induced by 1 μM AF18748 in each experiment.

IL-5Rα ECD [4] = biological target: T1, IL-5Rα ECD; experiment: gel filtration chromatography of IL-5Rα ECD with peptide; design: IL-5RαECD=ECD of the human IL-5 receptor a chain
Experimental: Secondly, the ability of peptides to induce receptor dimerization was studied using gel filtration chromatography. Gel filtration chromatography was performed on a Pharmacia Smart system using a Precision Superdex 200 3.2/30 column at 25° C. with a flow rate of 10 μl/min. The buffer was 50 mM Tris pH 7.5, 0.5 M NaCl. The column was calibrated using the Biorad Gel filtration molecular weight standards which contain Thyroglobulin, 670 KD; Bovine gamma globulin, 158 KD; Chicken ovalbumin, 44 KD; Equine myoglobin, 17 KD; Vitamin B12, 1.35 KD. […] Results shown are from a single experiment, representative of three separate runs for each condition.

IL-5RαECD = IL-5RαECD (Homo sapiens, UniProt Q01344); settings: AF18748 over 10 pM to 1 nM; binding decreases above 1 nM
Experimental: A “sandwich” binding assay using microvolume fluorimetry (Martens et al., Anal. Biochem., 273:20 (1999)) was used to measure the ligand dependent association of two receptor proteins. IL-5RαECD (the extracellular domain (ECD) of the human IL-5 receptor a chain) was immobilized onto 10 μm beads and incubated with soluble, fluorescently labeled IL-5Rα ECD in the presence or absence of IL-5 or peptide.
Fluorescently labeled mAb 179 was prepared using Cy5 monofunctional reactive dye (Amersham) according to the manufacturer's instructions. (As disclosed in Martens et al., supra, Cy5.5 dye is also suitable.) Fluorescent mAb179:IL-5Rα ECD complexes were formed by preincubating the labeled antibody with an equimolar amount of receptor ECD in phosphate buffered saline (PBS) for 1 hr at room temperature. Mono A 10 μm polystyrene beads (Pharmacia) were coated first with biotinylated bovine serum albumin, then sequentially with streptavidin, biotinylated mAb179, and IL-5Rα ECD. […]
The binding reactions were incubated in microtiter plates overnight at room temperature, then microvolume fluorimetry measurements of bead-associated fluorescence were made using an FMAT instrument (Perkin-Elmer).

human IL-5 receptor = biological target: T4, human IL-5 receptor (Homo sapiens, UniProt Q01344); settings: HL60 subclone, sodium butyrate induced; read-out: Kd of IL-5 binding sites; cited from earlier work
T4 construct: host or cells: HL60 subclone induced towards eosinophil differentiation with sodium butyrate
T4 sequence (Q01344 21-420): T2 sequence (Q01344 21-420)
T4 sequence (P32927 17-897 partner): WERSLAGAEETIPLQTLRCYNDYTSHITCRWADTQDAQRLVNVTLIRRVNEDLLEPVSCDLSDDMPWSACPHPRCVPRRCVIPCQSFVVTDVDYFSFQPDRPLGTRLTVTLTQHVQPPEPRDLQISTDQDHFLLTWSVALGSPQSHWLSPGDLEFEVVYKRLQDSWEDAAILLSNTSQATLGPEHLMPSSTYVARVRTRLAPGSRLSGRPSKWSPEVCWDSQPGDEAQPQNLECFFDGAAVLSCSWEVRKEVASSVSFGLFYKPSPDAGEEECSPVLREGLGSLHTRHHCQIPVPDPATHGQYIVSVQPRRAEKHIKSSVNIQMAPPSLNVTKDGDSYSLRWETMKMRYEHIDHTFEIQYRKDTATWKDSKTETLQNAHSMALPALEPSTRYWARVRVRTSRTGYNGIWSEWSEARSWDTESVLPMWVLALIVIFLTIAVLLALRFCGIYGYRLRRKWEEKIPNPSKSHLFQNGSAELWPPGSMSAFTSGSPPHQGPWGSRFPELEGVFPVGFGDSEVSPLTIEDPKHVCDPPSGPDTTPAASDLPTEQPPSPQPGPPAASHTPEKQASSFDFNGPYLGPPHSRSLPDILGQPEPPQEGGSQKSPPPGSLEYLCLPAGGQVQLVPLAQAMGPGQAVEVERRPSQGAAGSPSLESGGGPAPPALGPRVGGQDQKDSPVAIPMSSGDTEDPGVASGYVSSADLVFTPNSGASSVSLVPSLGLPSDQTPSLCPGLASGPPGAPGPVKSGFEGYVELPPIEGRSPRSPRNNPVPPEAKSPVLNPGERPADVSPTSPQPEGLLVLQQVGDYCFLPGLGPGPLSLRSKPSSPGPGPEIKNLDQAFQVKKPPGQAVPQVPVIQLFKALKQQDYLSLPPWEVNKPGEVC

[5] = IL-5Rα ECD with equimolar peptide, Superdex 200

T3 sequence (Q01344+P00533 fused, stated change not applied): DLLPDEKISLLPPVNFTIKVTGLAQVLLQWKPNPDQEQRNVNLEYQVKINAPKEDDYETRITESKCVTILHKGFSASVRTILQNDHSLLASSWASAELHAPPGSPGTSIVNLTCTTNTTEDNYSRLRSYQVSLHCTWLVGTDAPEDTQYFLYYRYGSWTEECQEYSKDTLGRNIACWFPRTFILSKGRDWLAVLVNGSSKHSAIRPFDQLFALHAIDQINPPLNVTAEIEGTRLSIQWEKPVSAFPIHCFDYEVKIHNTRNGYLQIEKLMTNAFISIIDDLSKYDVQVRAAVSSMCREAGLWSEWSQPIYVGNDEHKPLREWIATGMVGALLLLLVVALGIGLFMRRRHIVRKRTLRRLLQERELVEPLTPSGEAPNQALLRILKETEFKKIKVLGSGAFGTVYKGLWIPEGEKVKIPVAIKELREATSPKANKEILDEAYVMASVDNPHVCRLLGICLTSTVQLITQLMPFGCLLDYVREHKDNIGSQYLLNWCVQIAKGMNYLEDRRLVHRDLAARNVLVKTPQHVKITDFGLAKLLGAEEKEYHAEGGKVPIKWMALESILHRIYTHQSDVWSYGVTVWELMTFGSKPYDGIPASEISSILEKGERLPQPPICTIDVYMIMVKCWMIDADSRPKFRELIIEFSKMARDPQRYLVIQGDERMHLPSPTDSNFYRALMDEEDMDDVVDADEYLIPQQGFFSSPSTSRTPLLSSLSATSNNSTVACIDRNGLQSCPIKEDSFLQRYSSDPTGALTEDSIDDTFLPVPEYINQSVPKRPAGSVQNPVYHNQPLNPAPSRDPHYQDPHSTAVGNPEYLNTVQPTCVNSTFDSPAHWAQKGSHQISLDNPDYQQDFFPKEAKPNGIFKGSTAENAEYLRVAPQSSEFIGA

## CC(C)[C@H](NC(=O)[C@H](CSSC[C@H](NC(=O)[C@@H](NC(=O)[C@H](Cc1ccc(O)cc1)NC(=O)CNC(=O)[C@H](CC(=O)O)NC(=O)CNC(=O)CNC(=O)CNC(=O)[C@@H](N)[C@@H](C)O)C(C)C)C(=O)N[C@H](C(=O)N[C@@H](CCC(=O)O)C(=O)N[C@@H](Cc1c[nH]c2ccccc12)C(=O)N[C@@H](C)C(=O)N[C@@H](CCCNC(=N)N)C(=O)N[C@H]1CSSC[C@@H](C(=O)N[C@@H](CCCCN)C(=O)O)NC(=O)[C@H]([C@@H](C)O)NC(=O)[C@@H]2CCCN2C1=O)C(C)C)NC(=O)[C@@H](NC(=O)[C@H](Cc1ccc(O)cc1)NC(=O)CNC(=O)[C@H](CC(=O)O)NC(=O)CNC(=O)CNC(=O)CNC(=O)[C@@H](N)[C@@H](C)O)C(C)C)C(=O)N[C@@H](CCC(=O)O)C(=O)N[C@@H](Cc1c[nH]c2ccccc12)C(=O)N[C@@H](C)C(=O)N[C@@H](CCCNC(=N)N)C(=O)N[C@H]1CSSC[C@@H](C(=O)N[C@@H](CCCCN)C(=O)O)NC(=O)[C@H]([C@@H](C)O)NC(=O)[C@@H]2CCCN2C1=O [AF18748] (I: H-TGGGDGYVCVEWARCPTCK-OH / II: H-TGGGDGYVCVEWARCPTCK-OH; disulfide I:9-II:9, I:15-I:18, II:15-II:18)
IL-5Rα ECD [1]
  IC50: 0.78 nM
[2]
  IC50: 0.4 ± 0.04 nM
Human eosinophils
  IC50: 0.348 ± 0.067 nM

## VDECWRIIASHTWFCAEE (disulfide 4-15 (inferred)) [AF17121]
[3]
  basal level of luciferase expression in unstimulated cells: reduced basal level of luciferase expression
  luciferase activity of Ba/F3 cells expressing the chimera: no effect
IL-5Rα ECD [4]; IL-5Rα ECD with equimolar peptide
  Receptor State: Monomer
IL-5Rα ECD [4]; [5]
  Calculated MW: 89.5 kDa
  Elution Volume: 1.425
IL-5Rα ECD [4]; gel filtration
  effect on elution / apparent size of IL-5Rα ECD: no effect on the elution of the receptor
IL-5RαECD
  association of fluorescently labeled IL-5Rα ECD to IL-5RαECD-coated beads: did not mediate the association of labeled receptor with the beads

## IL-5: Interleukin 5, natural ligand, disulfide linked homodimer
[3]
  basal level of luciferase expression in unstimulated cells: reduced basal level of luciferase expression
  luciferase activity of Ba/F3 cells expressing the chimera: no effect
[3]; 200 pM AF18748, increasing concentrations of IL-5
  effect on activation of the luciferase reporter by AF18748: antagonized
Human IL-5 receptor
  Kd: 0.03 nM
IL-5RαECD
  association of fluorescently labeled IL-5Rα ECD to IL-5RαECD-coated beads: did not mediate receptor association
